Results published in patent publication US20040208873A1.

Target: recombinant human IL-8, 72 aa form (monocyte derived) (human) (UniProt P10145)
Test: cell-based or functional assay

Sequence of recombinant human IL-8, 72 aa form (monocyte derived) (human) (P10145 28-99 limits assumed): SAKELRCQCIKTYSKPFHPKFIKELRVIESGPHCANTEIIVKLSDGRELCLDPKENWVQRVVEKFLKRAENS

expression level of CD11b on IL-8 stimulated PMN (MFI, flow cytometry): 2400 MFI | expression of CD62L on IL-8 stimulated PMN (MFI, flow cytometry): 150 MFI
Substance: irrelevant human isotype control antibody (Example 8)
